According to US20220324969A1 (MYTHIC THERAPEUTICS, published 2022):
Where a chain is given by its changes, count along the chain named. In names and notes the source's numbering stands.

B1: MYT2649 (antibody, V domains shown)
VH: QVQLVQSGAEVKKPGASVKVSCKASGYTHHNYDINWVRQAPGQGLEWIGWIYPGDGSTKYNEKFKAKATLTADTSTSTAYMELRSLRSDDTAVYYCASGYEDAMDYWGQGTTVTVSS
VL: DIQMTQSPSSLSASVGDRVTINCKASQDINSYLSWFQQKPGKAPKTLIYRANRLVDGVPSRFSGSGSGQDYTLTISSLQPEDFATYYCLQYDEFPLTFGGGTKVEIK
notes: IgG; vadastuximab VH combination #1 (F29H+T30H)
B2: MYT2650 (antibody, V domains shown)
VH: B1 VH with H30T, D105H
VL: B1 VL
notes: IgG; vadastuximab VH combination #2 (F29H+D105H)
B3: MYT2651 (antibody, V domains shown)
VH: B1 VH with H29F, D105H
VL: B1 VL
notes: IgG; vadastuximab VH combination #3 (T30H+D105H)
B4: MYT2652 (antibody, V domains shown)
VH: B1 VH with D105H
VL: B1 VL
notes: IgG; vadastuximab VH combination #4 (F29H+T30H+D105H)
B5: MYT2653 (antibody, V domains shown)
VH: B1 VH with H29F, H30T
VL: B1 VL with K24H
notes: IgG; vadastuximab VL variant #1 (K24H)
B6: MYT2654 (antibody, V domains shown)
VH: B1 VH with H29F, H30T
VL: B1 VL with A25H
notes: IgG; vadastuximab VL variant #2 (A25H)
B7: MYT2655 (antibody, V domains shown)
VH: B1 VH with H29F, H30T
VL: B1 VL with S26H
notes: IgG; vadastuximab VL variant #3 (S26H)
B8: MYT2656 (antibody, V domains shown)
VH: B1 VH with H29F, H30T
VL: B1 VL with Q27H
notes: IgG; vadastuximab VL variant #4 (Q27H)
B9: MYT2657 (antibody, V domains shown)
VH: B1 VH with H29F, H30T
VL: B1 VL with D28H
notes: IgG; vadastuximab VL variant #5 (D28H)
B10: MYT2658 (antibody, V domains shown)
VH: B1 VH with H29F, H30T
VL: B1 VL with I29H
notes: IgG; vadastuximab VL variant #6 (I29H)
B11: MYT2659 (antibody, V domains shown)
VH: B1 VH with H29F, H30T
VL: B1 VL with N30H
notes: IgG; vadastuximab VL variant #7 (N30H)
B12: MYT2660 (antibody, V domains shown)
VH: B1 VH with H29F, H30T
VL: B1 VL with S31H
notes: IgG; vadastuximab VL variant #8 (S31H)
B13: MYT2662 (antibody, V domains shown)
VH: B1 VH with H29F, H30T
VL: B1 VL with L33H
notes: IgG; vadastuximab VL variant #10 (L33H)
B14: MYT2664 (antibody, V domains shown)
VH: B1 VH with H29F, H30T
VL: B1 VL with R50H
notes: IgG; vadastuximab VL variant #12 (R50H)
B15: MYT2665 (antibody, V domains shown)
VH: B1 VH with H29F, H30T
VL: B1 VL with A51H
notes: IgG; vadastuximab VL variant #13 (A51H)
B16: MYT2666 (antibody, V domains shown)
VH: B1 VH with H29F, H30T
VL: B1 VL with N52H
notes: IgG; vadastuximab VL variant #14 (N52H)
B17: MYT2667 (antibody, V domains shown)
VH: B1 VH with H29F, H30T
VL: B1 VL with R53H
notes: IgG; vadastuximab VL variant #15 (R53H)
B18: MYT2668 (antibody, V domains shown)
VH: B1 VH with H29F, H30T
VL: B1 VL with L54H
notes: IgG; vadastuximab VL variant #16 (L54H)

target: CD33 (Sino Biological, Cat #12238-H08H) (UniProt P20138 18-259); assay: BLI, IgG captured on anti-human Fc sensor, 50 nM CD33, pH 7.4 vs pH 5.4
Sequence (P20138 18-259 limits assumed): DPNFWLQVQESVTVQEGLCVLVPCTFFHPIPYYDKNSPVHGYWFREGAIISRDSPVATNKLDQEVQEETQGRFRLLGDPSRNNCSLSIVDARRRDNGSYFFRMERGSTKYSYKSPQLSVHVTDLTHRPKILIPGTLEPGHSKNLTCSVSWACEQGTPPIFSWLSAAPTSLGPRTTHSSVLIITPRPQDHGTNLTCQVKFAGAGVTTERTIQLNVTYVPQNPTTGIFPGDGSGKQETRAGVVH

Binding result, binds:
B1
B2
B3
B4
B5
B6
B7
B8
B9
B10
B11
B12
B13
B14
B15
B16
B17
B18
